According to patent US20120093830A1 (published 2012):
Residue numbers refer to the chain shown, from its start. Values joined by “and” are separate entries in the source; they are usually repeats but may differ in a detail not shown here. Identical values can stand only once.

Experiments:
human IL-13 [1] = target: T1, human IL-13 (human, UniProt P35225 35-146); assay: cell-based or functional assay
cynomolgus IL-13 = cynomolgus IL-13 (cynomolgus, UniProt Q0PW92 21-132); assay: cell-based or functional assay
human IL-13 [2] = target: T1, human IL-13; assay: IL-13 sandwich ELISA (IL-13 binding to the capture antibody inhibited); block 4; sample #16 (2.6 mg/mL in PBS), aerosolised material after LC+ jet nebuliser
Protocol: (§1) The plate was then incubated with TMB substrate (KPL, Gaithersburg, USA), and the reaction was stopped by the addition of HCl and the absorbance read at 450 nm.
(§2) Nebulisation was performed for approximately 3 minutes. 100 uL of protein samples (diluted to 1 mg/mL) were injected onto the SEC (TSKgel G2000SWXL, Tosoh Biosciences, Germany) column. The protein separation on SEC was performed at 0.5 mL/min for 45 minutes. PBS (phosphate buffered saline)+10% EtOH was used as mobile phase. The detection of eluting proteinaceous material was carried by on-line detection by UV (Abs 280 nm & 215 nm). […] The optimum MMAD is 3 μm and for deep lung delivery the desirable respirable fraction is the highest percentage of particles <5 μm. The LC+ (Pari) Jet nebuliser gives the better MMAD: MMAD values are lower when the buffer contains PEG; MMAD decreases as protein concentration increases.

human IL-13 [3] = target: T1, human IL-13; assay: IL-13 sandwich ELISA: dAb dilution series mixed with IL-13, binding of IL-13 to the coating (capture) antibody detected; block 1 of the table, sample not nebulised
Protocol: as §1, §2

human IL-13 [4] = target: T1, human IL-13; assay: IL-13 sandwich ELISA: dAb dilution series mixed with IL-13, binding of IL-13 to the coating (capture) antibody detected; block 2 of the table, sample not nebulised
Protocol: as §1, §2

human IL-13 [5] = target: T1, human IL-13; assay: IL-13 sandwich ELISA: dAb dilution series mixed with IL-13, binding of IL-13 to the coating (capture) antibody detected; block 3 of the table, sample not nebulised
Protocol: as §1, §2

human IL-13 [6] = target: T1, human IL-13; assay: IL-13 sandwich ELISA: dAb dilution series mixed with IL-13, binding of IL-13 to the coating (capture) antibody detected; block 4 of the table, sample not nebulised
Protocol: as §1, §2

human IL-13 [7] = target: T1, human IL-13; assay: IL-13 sandwich ELISA (IL-13 binding to the capture antibody inhibited); block 4; sample #16 (2.6 mg/mL in PBS), material remaining in the cup after LC+ jet nebuliser
Protocol: as §1, §2

human IL-13 [8] = target: T1, human IL-13; assay: IL-13 sandwich ELISA (IL-13 binding to the capture antibody inhibited); block 4; sample #16 (2.6 mg/mL in PBS), aerosolised material after E-flow vibrating mesh nebuliser
Protocol: as §1, §2

human IL-13 [9] = target: T1, human IL-13; assay: IL-13 sandwich ELISA (IL-13 binding to the capture antibody inhibited); block 3; sample #16 (2.6 mg/mL in PBS), material remaining in the cup after E-flow vibrating mesh nebuliser
Protocol: as §1, §2

human IL-13 [10] = target: T1, human IL-13; assay: IL-13 sandwich ELISA (IL-13 binding to the capture antibody inhibited); block 2; sample #14 (2.3 mg/ml, 25 mM sodium phosphate pH 7.5, 7% PEG1000, 1.2% sucrose), aerosolised material after LC+ jet nebuliser
Protocol: as §1, §2

human IL-13 [11] = target: T1, human IL-13; assay: IL-13 sandwich ELISA (IL-13 binding to the capture antibody inhibited); block 3; sample #15 (4.7 mg/mL, 25 mM sodium phosphate pH 7.5, 7% PEG1000, 1.2% sucrose), aerosolised material after LC+ jet nebuliser
Protocol: as §1, §2

human IL-13 [12] = target: T1, human IL-13; assay: IL-13 sandwich ELISA (IL-13 binding to the capture antibody inhibited); block 1; sample #14 (2.3 mg/ml, 25 mM sodium phosphate pH 7.5, 7% PEG1000, 1.2% sucrose), material remaining in the cup after LC+ jet nebuliser
Protocol: as §1, §2

human IL-13 [13] = target: T1, human IL-13; assay: IL-13 sandwich ELISA (IL-13 binding to the capture antibody inhibited); block 3; sample #15 (4.7 mg/mL, 25 mM sodium phosphate pH 7.5, 7% PEG1000, 1.2% sucrose), material remaining in the cup after LC+ jet nebuliser
Protocol: as §1, §2

human IL-13 [14] = target: T1, human IL-13; assay: IL-13 sandwich ELISA (IL-13 binding to the capture antibody inhibited); block 1; sample #14 (2.3 mg/ml, 25 mM sodium phosphate pH 7.5, 7% PEG1000, 1.2% sucrose), aerosolised material after E-flow vibrating mesh nebuliser
Protocol: as §1, §2

human IL-13 [15] = target: T1, human IL-13; assay: IL-13 sandwich ELISA (IL-13 binding to the capture antibody inhibited); block 2; sample #15 (4.7 mg/mL, 25 mM sodium phosphate pH 7.5, 7% PEG1000, 1.2% sucrose), aerosolised material after E-flow vibrating mesh nebuliser
Protocol: as §1, §2

human IL-13 [16] = target: T1, human IL-13; assay: IL-13 sandwich ELISA (IL-13 binding to the capture antibody inhibited); block 2; sample #15 (4.7 mg/mL, 25 mM sodium phosphate pH 7.5, 7% PEG1000, 1.2% sucrose), material remaining in the cup after E-flow vibrating mesh nebuliser
Protocol: as §1, §2

human IL-13 [17] = target: T1, human IL-13; assay: IL-13 sandwich ELISA: dAb dilution series mixed with IL-13, binding of IL-13 to the coating (capture) antibody detected; block 1 of the table, standard
human IL-13 [18] = target: T1, human IL-13; assay: IL-13 sandwich ELISA: dAb dilution series mixed with IL-13, binding of IL-13 to the coating (capture) antibody detected; block 2 of the table, standard
human IL-13 [19] = target: T1, human IL-13; assay: IL-13 sandwich ELISA: dAb dilution series mixed with IL-13, binding of IL-13 to the coating (capture) antibody detected; block 3 of the table, standard
human IL-13 [20] = target: T1, human IL-13; assay: IL-13 sandwich ELISA: dAb dilution series mixed with IL-13, binding of IL-13 to the coating (capture) antibody detected; block 4 of the table, standard

Sequence of cynomolgus IL-13 (Q0PW92 entry or part of it): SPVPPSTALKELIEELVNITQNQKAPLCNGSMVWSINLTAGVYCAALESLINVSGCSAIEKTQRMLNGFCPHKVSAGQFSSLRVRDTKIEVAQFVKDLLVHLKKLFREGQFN
T1 sequence (P35225 35-146 limits assumed): as the sequence (Q0PW92 entry or part of it) above, with S1G, K10R, V42M, N67S, R83H, V100L counted along it

B1: DOM10-275-78 (single domain antibody (dAb), V domains shown)
VH: EVQLLESGGGLVQPGGSLRLSCVASGFTFDVAEMDWVRQAPGKGLEWVSTISPSRRGTYYADSVKGRFTISRDNSKNTLYLQMNSLRAEDTAVYYCAKAYTGRSLWGPGTLVTVSS
EC50, FIG. 1A: inhibition of human IL-13 (3 ng/ml) stimulated alkaline phosphatase production in HEK STAT6 cells (human IL-13 [1]): 2.42 nM and 2.65 nM | EC50, FIG. 1B: inhibition of cynomolgus IL-13 (3 ng/ml) stimulated alkaline phosphatase production in HEK STAT6 cells (cynomolgus IL-13): 1.37 nM

B2: DOM10-53-474 (single domain antibody (dAb), V domains shown)
VH: GVQLLESGGGLVQPGGSLRLSCAASGFTFAWYDMGWVRQAPGKGLEWVSSIDWHGEVTYYADSVKGRFTISRDNSKNTLYLQMNSLRAEDTAVYYCATAEDEPGYDYWGQGTLVTVSS
notes: Soluble anti-IL-13 domain antibody monomer (immunoglobulin single variable domain); also called anti-IL-13 dAb
EC50, FIG. 1A: inhibition of human IL-13 (3 ng/ml) stimulated alkaline phosphatase production in HEK STAT6 cells (human IL-13 [1]): 0.72 nM | EC50, FIG. 1B: inhibition of cynomolgus IL-13 (3 ng/ml) stimulated alkaline phosphatase production in HEK STAT6 cells (cynomolgus IL-13): 10.8 nM | IC50 (human IL-13 [2]): 0.023 nM | IC50 (human IL-13 [3]): 0.0458 nM | IC50 (human IL-13 [4]): 0.0356 nM | IC50 (human IL-13 [5]): 0.0289 nM | IC50 (human IL-13 [6]): 0.0269 nM | IC50 (human IL-13 [7]): 0.0339 nM | IC50 (human IL-13 [8]): 0.0351 nM | IC50 (human IL-13 [9]): 0.0224 nM | IC50 (human IL-13 [10]): 0.0348 nM | IC50 (human IL-13 [11]): 0.0149 nM | IC50 (human IL-13 [12]): 0.0317 nM | IC50 (human IL-13 [13]): 0.0129 nM | IC50 (human IL-13 [14]): 0.0322 nM | IC50 (human IL-13 [15]): 0.0185 nM | IC50 (human IL-13 [16]): 0.0214 nM

B3: DOM10-53-344 (Std) (single domain antibody (dAb), V domains shown)
VH: B2 VH with T28I
IC50 (human IL-13 [17]): 0.0716 nM | IC50 (human IL-13 [18]): 0.125 nM | IC50 (human IL-13 [19]): 0.0455 nM | IC50 (human IL-13 [20]): 0.0671 nM
